Measurements published in publication PMC11098746 (2024).
No end group written: not given here.

biological target: Circumsporozoite protein (CSP) (Plasmodium falciparum (isolate 3D7), UniProt Q7K740); assay: AVEXIS screen signal:noise (double-corrected)
Sequence (Q7K740 19-374): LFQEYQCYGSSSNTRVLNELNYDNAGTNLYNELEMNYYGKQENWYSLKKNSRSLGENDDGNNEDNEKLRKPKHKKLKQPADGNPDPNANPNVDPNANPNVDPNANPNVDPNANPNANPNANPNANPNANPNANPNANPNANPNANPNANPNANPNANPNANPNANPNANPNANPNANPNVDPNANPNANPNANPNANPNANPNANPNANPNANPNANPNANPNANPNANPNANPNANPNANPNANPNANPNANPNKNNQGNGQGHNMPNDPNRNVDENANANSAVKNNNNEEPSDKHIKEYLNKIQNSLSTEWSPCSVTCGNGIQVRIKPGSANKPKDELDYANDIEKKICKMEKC

Binder | binding score
ADP354 (protein, bait human Fc-tagged dimer) MGPWSRSLSALLLLLQVSSWLCQEPEPCHPGFDAESYTFTVPRRHLERGRVLGRVNFEDCTGRQRTAYFSLDTRFKVGTDGVITVKRPLRFHNPQIHFLVYAWDSTYRKFSTKVTLNTVGHHHRPPPHQASVSGIQAELLTFPNSSPGLRRQKRDWVIPPISCPENEKGPFPKNLVQIKSNKDKEGKVFYSITGQGADTPPVGVFIIERETGWLKVTEPLDRERIATYTLFSHAVSSNGNAVEDPMEILITVTDQNDNKPEFTQEVFKGSVMEGALPGTSVMEVTATDADDDVNTYNAAIAYTILSQDPELPDKNMFTINRNTGVISVVTTGLDRESFPTYTLVVQAADLQGEGLSTTATAVITVTDTNDNPPIFNPTTYKGQVPENEANVVITTLKVTDADAPNTPAWEAVYTILNDDGGQFVVTTNPVNNDGILKTAKGLDFEAKQQYILHVAVTNVVPFEVSLTTSTATVTVDVLDVNEAPIFVPPEKRVEVSEDFGVGQEITSYTAQEPDTFMEQKITYRIWRDTANWLEINPDTGAISTRAELDREDFEHVKNSTYTALIIATDNGSPVATGTGTLLLILSDVNDNAPIPEPRTIFFCERNPKPQVINIIDADLPPNTSPFTAELTHGASANWTIQYNDPTQESIILKPKMALEVGDYKINLKLMDNQNKDQVTTLEVSVCDCEGAAGVCRKAQPVEAGLQIP | 0.796
ADP341 (protein, bait human Fc-tagged dimer) MEAAVAAPRPRLLLLVLAAAAAAAAALLPGATALQCFCHLCTKDNFTCVTDGLCFVSVTETTDKVIHNSMCIAEIDLIPRDRPFVCAPSSKTGSVTTTYCCNQDHCNKIELPTTVKSSPGLGP | 1.43
ADP155 (protein, bait human Fc-tagged dimer) MAPARLFALLLFFVGGVAESIRETEVIDPQDLLEGRYFSGALPDDEDVVGPGQESDDFELSGSGDLDDLEDSMIGPEVVHPLVPLDNHIPERAGSGSQVPTEPKKLEENEVIPKRISPVEESEDVSNKVSMSSTVQGSNIFERTEV | 0.582
ADP317 (protein, bait human Fc-tagged dimer) MGSWALLWPPLLFTGLLVRPPGTMAQAQYCSVNKDIFEVEENTNVTEPLVDIHVPEGQEVTLGALSTPFAFRIQGNQLFLNVTPDYEEKSLLEAQLLCQSGGTLVTQLRVFVSVLDVNDNAPEFPFKTKEIRVEEDTKVNSTVIPETQLQAEDRDKDDILFYTLQEMTAGASDYFSLVSVNRPALRLDRPLDFYERPNMTFWLLVRDTPGENVEPSHTATATLVLNVVPADLRPPWFLPCTFSDGYVCIQAQYHGAVPTGHILPSPLVLRPGPIYAEDGDRGINQPIIYSIFRGNVNGTFIIHPDSGNLTVARSVPSPMTFLLLVKGQQADLARYSVTQVTVEAVAAAGSPPRFPQRLYRGTVARGAGAGVVVKDAAAPSQPLRIQAQDPEFSDLNSAITYRITNHSHFRMEGEVVLTTTTLAQAGAFYAEVEAHNTVTSGTATTVIEIQVSEQEPPSTDVPPSPEAGGTTGPWTSTTSEVPRPPEPSQGPSTTSSGGGTGPHPPSGTTLRPPTSSTPGGPPGAENSTSHQPATPGGDTAQTPKPGTSQPMPPGVGTSTSHQPATPSGGTAQTPEPGTSQPMPPSMGTSTSHQPATPGGGTAQTPEAGTSQPMPPGMGTSTSHQPTTPGGGTAQTPEPGTSQPMPLSKSTPSSGGGPSEDKRFSVVDMA | 2.47
ADP261 (protein, bait human Fc-tagged dimer) KWETKNCSVSSTNANDITQSLTGKGNDSEEEMRFQEVFMEHMSNMEKRIQHILDMEANLMDTEHFQNFSMTTDQRFNDILLQLSTLFSSVQGHGNAIDEISKSLISLNTTLLDLQLNIENLNGKIQENTFKQQEEISKLEERVYNVSAEIMAMKEEQVHLEQEIKGEVKVLNNITNDLRLKDWEHSQTLRNITLIQGPPGPPGEKGDRGPTGESGPRGFPGPIGPPGLKGDRGAIGFPGSRGLPGYAGRPGNSGPKGQKGEKGSGNTLTPFTKVRLVGGSGPHEGRVEILHSGQWGTICDDRWEVRVGQVVCRSLGYPGVQAVHKAAHFGQGTGPIWLNEVFCFGRESSIEECKIRQWGTRACSHSEDAGVTCTL | 0.837
ADP120 (protein, bait human Fc-tagged dimer) MAGVGAGPLRAMGRQALLLLALCATGAQGLYFHIGETEKRCFIEEIPDETMVIGNYRTQMWDKQKEVFLPSTPGLGMHVEVKDPDGKVVLSRQYGSEGRFTFTSHTPGDHQICLHSNSTRMALFAGGKLRVHLDIQVGEHANNYPEIAAKDKLTELQLRARQLLDQVEQIQKEQDYQRYREERFRLTSESTNQR | 0.957
ADP352 (protein, bait human Fc-tagged dimer) MGHLSAPLHRVRVPWQGLLLTASLLTFWNPPTTAQLTTESMPFNVAEGKEVLLLVHNLPQQLFGYSWYKGERVDGNRQIVGYAIGTQQATPGPANSGRETIYPNASLLIQNVTQNDTGFYTLQVIKSDLVNEEATGQFHVYPELPKPSISSNNSNPVEDKDAVAFTCEPETQDTTYLWWINNQSLPVSPRLQLSNGNRTLTLLSVTRNDTGPYECEIQNPVSANRSDPVTLNVTYGPDTPTISPSDTYYRPGANLSLSCYAASNPPAQYSWLINGTFQQSTQELFIPNITVNNSGSYTCHANNSVTGCNRTTVKTIIVTELSPVVAKPQIKASKTTVTGDKDSVNLTCSTNDTGISIRWFFKNQSLPSSERMKLSQGNTTLSINPVKREDAGTYWCEVFNPISKNQSDPIMLNVNYNALPQENGLSPG | 1.31
ADP325 (protein, bait human Fc-tagged dimer) MAAAQEADGARSAVVAAGGGSSGQVTSNGSIGRDPPAETQPQNPPAQPAPNAWQVIKGVLFRIFIIWAISSWFRRGPAPQDQAGPGGAPRVASRNLFPKDTLMNLHVYISEHEHFTDFNATSALFWEQHDLVYGDWTSGENSDGCYEHFAELDIPQSVQQNGSIYIHVYFTKSGFHPDPRQKALYRRLATVHMSRMINKYKRRRFQKTKNLLTGETEADPEMIKRAEDYGPVEVISHWHPNITINIVDDHTPWVKGSVPPPLDQYVKFDAVSGDYYPIIYFNDYWNLQKDYYPINESLASLPLRVSFCPLSLWRWQLYAAQSTKSPWNFLGDELYEQSDEEQDSVKVALLETNP | 1.73
ADP138 (protein, bait human Fc-tagged dimer) MAGKSSTRAVLLLLGIQLTALWPIAAVEIYTSRVLEAVNGTDARLKCTFSSFAPVGDALTVTWNFRPLDGGPEQFVFYYHIDPFQPMSGRFKDRVSWDGNPERYDASILLWKLQFDDNGTYTCQVKNPPDVDGVIGEIRLSVVHTVRFS | 0.831
ADP279 (protein, also: human Fc-tagged dimer) RMAHKFITGKLVEDERSDREETESSEGEEAAAGGGAKSRPLANGHPILNNNHRKND | 1.03
ADP146 (protein, bait human Fc-tagged dimer) MVAWRSAFLVCLAFSLATLVQRGSGDFDDFNLEDAVKETSSVKQPWDHTTTTTTNRPGTTRAPAKPPGSGLDLADALDDQDDGRRKPGIGGRERWNHVTTTTKRPVTTRAPANTLGNDFDLADALDDRNDRDDGRRKPIAGGGGFSDKDLEDIVGGGEYKPDKGKGDGRYGSNDDPGSGMVAEP | 1.36
